Reference: US20260158139A1, “CARD9 VARIANT POLYPEPTIDE AND ANTIBODIES DIRECTED THERETO” (The Broad Institute, Inc., priority 2023, published 2026)
Substitutions are numbered along the chain they refer to.

What was measured:
[1] = tested on: T1, CARD9 R101C overexpressed in HEK 293T cells
T1 sequence (Q9H257 1-536 with R101C, species assumed, looked up): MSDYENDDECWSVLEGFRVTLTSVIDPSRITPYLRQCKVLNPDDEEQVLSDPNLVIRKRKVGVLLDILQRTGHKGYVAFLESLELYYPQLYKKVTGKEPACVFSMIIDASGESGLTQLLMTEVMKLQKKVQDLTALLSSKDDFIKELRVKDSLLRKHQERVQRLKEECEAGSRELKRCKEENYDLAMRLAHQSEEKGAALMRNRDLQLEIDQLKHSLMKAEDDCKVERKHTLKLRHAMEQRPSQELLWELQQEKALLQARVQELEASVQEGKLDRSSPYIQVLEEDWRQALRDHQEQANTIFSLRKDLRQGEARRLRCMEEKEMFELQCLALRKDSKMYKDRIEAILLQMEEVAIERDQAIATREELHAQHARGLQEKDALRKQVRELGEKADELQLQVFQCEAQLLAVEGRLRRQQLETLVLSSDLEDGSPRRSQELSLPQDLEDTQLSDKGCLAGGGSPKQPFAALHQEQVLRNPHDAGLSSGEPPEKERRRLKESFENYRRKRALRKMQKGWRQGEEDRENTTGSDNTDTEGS

[2] = tested on: T2, CARD9 FL overexpressed in HEK 293T cells
T2 sequence (Q9H257 1-536, species assumed, looked up): T1 sequence (Q9H257 1-536 with R101C, species assumed, looked up) with C101R

[3] = tested on: T3, CARD9 S104N overexpressed in HEK 293T cells
T3 sequence (Q9H257 1-536 with S104N, species assumed, looked up): T1 sequence (Q9H257 1-536 with R101C, species assumed, looked up) with C101R, S104N

Substance: purified PKCδ (Promega PKCδ Kinase Enzyme System #V3401)
- in vitro phosphorylation assay (western blot) [1]: this phosphorylation requires an intact RXXS motif in the linker domain
- in vitro phosphorylation assay (western blot) [2]: PKCd does indeed phosphorylate S104
- in vitro phosphorylation assay (western blot) [3]: this phosphorylation requires an intact RXXS motif in the linker domain
